The target of this experiment is All other mutant IGF-1R constructs. As to the kind of experiment: SPR, Fab over captured mutant hIGF-1R-Fc; all of SD001-SD019 other than SD015.

B1: M14-C03 Fab (Fab, V domains shown)
VH: EVQLLESGGGLVQPGGSLRLSCAASGFTFSKYMMSWVRQAPGKGLEWVSYISPSGGLTWYADSVKGRFTISRDNSKNTLYLQMNSLRAEDTAVYYCARDGARGYGMDVWGQGTTVTVSS
VL: DIQMTQSPATLSLSPGERATLSCRASQSVSSYLAWYQQKPGQAPRLLIYDASNRATGIPARFSGSGSGTDFTLTISSLEPEDFAVYYCQQRSNWPPEVTFGPGTKVDIK
As to B1, the Kd worked out at 5 nM.

B2: M13-C06 Fab (Fab, V domains shown)
VH: EVQLLESGGGLVQPGGSLRLSCAASGFTFSIYRMQWVRQAPGKGLEWVSGISPSGGTTWYADSVKGRFTISRDNSKNTLYLQMNSLRAEDTAVYYCARWSGGSGYAFDIWGQGTMVTVSS
VL: DIQMTQSPLSLSASVGDRVTITCQASRDIRNYLNWYQQKPGKAPKLLIYDASSLQTGVPSRFGGSGSGTDFSFTIGSLQPEDIATYYCQQFDSLPHTFGQGTKLEIK
B2 registered a Kd of 1 nM.

A word on the Kd: it is the constant that tells how readily two partners part at equilibrium. A lower Kd goes with higher affinity.

These data come from patent US20090130105A1.
